Source: patent US20240158497A1 (published 2024)

B1: MAb16637 (antibody, V domains shown)
VH: QVQLVQSGAEVKKPGASVKVSCKASGYTFTSLGISWVRQAPGQGLEWMGWISAYSGNRDYAQKFQGRVTMTTDTSTSTAYMELRSLRSDDTAVYYCARSLRFDYWGQGTLVTVSS
VL: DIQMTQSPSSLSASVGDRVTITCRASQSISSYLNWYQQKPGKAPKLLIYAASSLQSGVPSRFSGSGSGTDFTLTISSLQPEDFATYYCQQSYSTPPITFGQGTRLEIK
B2: MAb16622 (antibody, V domains shown)
VH: EVQLVESGGGVVRPGGSLRLSCTASGFTFDDYGMSWVRQAPGKGLEWVSGINWNGGRTEYADAVKGRFIISRDNAKNSLYLQMNSLRAEDTALYFCARTELRWDYWGQGTLVTVSS
VL: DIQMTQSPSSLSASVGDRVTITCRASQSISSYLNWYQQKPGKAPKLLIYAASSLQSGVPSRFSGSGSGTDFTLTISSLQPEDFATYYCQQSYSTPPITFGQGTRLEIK
B3: MAb16682 (antibody, V domains shown)
VH: EVQLVESGGGLVQPGGSLRLSCAASGFTFSTYWMNWVRQAPGKGLEWVANIKEDGSEKYYVDSVKGRFTISRDNAKNSLYLQMNSLRAEDTAVYYCAREGFGVVTYIWGQGTMVTVSS
VL: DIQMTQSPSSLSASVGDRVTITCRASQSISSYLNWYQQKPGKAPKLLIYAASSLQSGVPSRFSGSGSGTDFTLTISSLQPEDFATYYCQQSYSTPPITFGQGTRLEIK
B4: MAb16636 (antibody, V domains shown)
VH: QLQLQESGPGLVKPSETLSLICTVSGGSISSNNYYWGWIRQPPGKGLEWIGNLYGSGSTYYNPSLKSRVTISVDTSKNQFSLKLSFVTAADTAVYHCARWDTNGGAFDIWGQGTMVTVSS
VL: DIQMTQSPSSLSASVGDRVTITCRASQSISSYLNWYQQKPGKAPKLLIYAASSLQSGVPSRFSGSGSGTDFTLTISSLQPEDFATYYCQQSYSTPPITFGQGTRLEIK
B5: MAb16666 (antibody, V domains shown)
VH: EVQLVESGGGLVQSGGSLRLSCAASGFTFSRYEMNWVRQAPGKGLEWVAYISNTGTTRDYSDSVKGRFTISRDNAKNSLYLQMSSLRVEDTAVYYCVREKFSGTSDWFDPWGQGTLVTVSS
VL: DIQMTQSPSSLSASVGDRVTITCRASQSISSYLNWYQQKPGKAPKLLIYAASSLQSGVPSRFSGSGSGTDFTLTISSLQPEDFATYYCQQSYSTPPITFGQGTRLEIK
B6: MAb16673 (antibody, V domains shown)
VH: EVQLVQSGAEVKKPGESLKISCKGSGYSFTSYWIDWVRQMPGKGLEWMGIIYPDDSDTRYSPSFQGQVTMSVDKSISTAYLQWSSLKASDTAIYYCARHERGIVEAGTDYYYYYGMDVWGQGTTVTVSS
VL: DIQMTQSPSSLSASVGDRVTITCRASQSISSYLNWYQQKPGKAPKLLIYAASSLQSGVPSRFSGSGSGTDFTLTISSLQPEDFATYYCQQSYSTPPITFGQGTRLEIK
B7: MAb16662 (antibody, V domains shown)
VH: EVQLVESGGGLVQPGGSLRLSCTASGFTFSNYAIFWVRQAPGKGLEYVSGISNNGVTKYYADSVRDRFTISRDNSRNTVSIQMDSLRTEDMAVYYCARENWGSDDGFDIWGQGTMVTVSS
VL: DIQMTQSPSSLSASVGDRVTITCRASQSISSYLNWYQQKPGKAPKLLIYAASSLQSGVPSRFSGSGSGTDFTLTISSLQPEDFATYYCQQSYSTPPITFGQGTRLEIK

Target: T1, mouse GP130 extracellular domain expressed with a C-terminal myc-myc-hexahistidine tag (mouse, UniProt Q00560 23-617)
T1 construct: monomeric; also called mGP130-mmH; mGP130-MMH
T1 sequence (Q00560 other isoform, or with tags, fused parts or gaps): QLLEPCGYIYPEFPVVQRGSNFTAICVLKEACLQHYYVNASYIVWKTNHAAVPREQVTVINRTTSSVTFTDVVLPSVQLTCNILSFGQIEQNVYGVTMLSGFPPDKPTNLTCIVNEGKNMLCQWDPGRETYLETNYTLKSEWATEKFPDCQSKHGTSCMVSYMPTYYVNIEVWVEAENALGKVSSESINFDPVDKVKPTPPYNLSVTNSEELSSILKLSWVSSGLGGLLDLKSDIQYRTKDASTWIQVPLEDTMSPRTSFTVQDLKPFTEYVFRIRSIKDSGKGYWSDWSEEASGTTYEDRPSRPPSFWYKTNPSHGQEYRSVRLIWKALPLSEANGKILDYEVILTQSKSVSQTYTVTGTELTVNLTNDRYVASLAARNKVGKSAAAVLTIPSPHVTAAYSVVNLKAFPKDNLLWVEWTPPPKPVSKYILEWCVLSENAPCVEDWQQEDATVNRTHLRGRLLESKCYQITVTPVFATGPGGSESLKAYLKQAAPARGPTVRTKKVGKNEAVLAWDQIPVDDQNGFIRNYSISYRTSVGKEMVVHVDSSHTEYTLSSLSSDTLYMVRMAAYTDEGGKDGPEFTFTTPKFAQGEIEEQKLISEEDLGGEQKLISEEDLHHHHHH
Assay: SPR
Method: (§1) Equilibrium dissociation constant (KD) for different GP130 reagents binding to purified anti-GP130 monoclonal antibodies were determined using a real-time surface plasmon resonance based Biacore 4000 biosensor. All binding studies were performed in 10 mM HEPES, 150 mM NaCl, 3 mM EDTA, and 0.05% v/v Surfactant Tween-20, pH 7.4 (HBS-ET) running buffer at 25° C. and 37° C. The Biacore sensor surface was first derivatized by amine coupling with a monoclonal mouse anti-human Fc antibody (GE, #BR-1008-39) to capture anti-GP130 monoclonal antibodies. […] Reagents tagged with “mmH” are monomeric, whereas reagents tagged with “mFc” are dimeric. Thus, for example, “hGP130-mmH” is also referred to as “monomeric human GP130,” and “hGP130-mFc” is also referred to as “dimeric human GP130.”
(§2) The association rate (k a) and dissociation rate (kd) were determined by fitting the real-time binding sensorgrams to a 1:1 binding model with mass transport limitation using Scrubber 2.0c curve-fitting software. Binding dissociation equilibrium constant (KD) and dissociative half-life (t ½) were calculated from the kinetic rates as: […]

binding result	Binder
no binding (tested: 100 nM)	B1
no binding (tested: 100 nM)	B2
no binding (tested: 100 nM)	B3
no binding (tested: 100 nM)	B4
no binding (tested: 100 nM)	B5
no binding (tested: 100 nM)	B6
no binding (tested: 100 nM)	B7

Target: T2, human GP130 extracellular domain expressed with a C-terminal myc-myc-hexahistidine tag (human, UniProt P40189 23-619)
T2 construct: monomeric; also called hGP130-mmH; hGP130-MMH
Assay: SPR 25C, mAb captured, hGP130-MMH injected
Method: as §1, §2

100 nM Ag Bound (RU)	Kd	koff	kon	t½	Binder
91 RU	15.5 nM	0.0011 s⁻¹	71100 M⁻¹ s⁻¹	600 s	B1
36 RU	203 nM	0.0243 s⁻¹	120000 M⁻¹ s⁻¹	30 s	B2
21 RU	136 nM	0.0164 s⁻¹	121000 M⁻¹ s⁻¹	42 s	B3
37 RU	36.8 nM	0.000993 s⁻¹	27000 M⁻¹ s⁻¹	720 s	B4
138 RU	14.4 nM	0.00456 s⁻¹	317000 M⁻¹ s⁻¹	180 s	B5
58 RU	65.5 nM	0.0141 s⁻¹	215000 M⁻¹ s⁻¹	48 s	B6
22 RU	123 nM	0.029 s⁻¹	235000 M⁻¹ s⁻¹	24 s	B7

Target: T3, human GP130 delta D1-D3 expressed with a C-terminal myc-myc hexahistidine tag (human, UniProt P40189 329-619)
T3 construct: CHO supernatant, captured on anti-myc microspheres; also called human GP130 delta D1-D3-MMH
T3 sequence (P40189 other isoform, or with tags, fused parts or gaps mutant limits assumed): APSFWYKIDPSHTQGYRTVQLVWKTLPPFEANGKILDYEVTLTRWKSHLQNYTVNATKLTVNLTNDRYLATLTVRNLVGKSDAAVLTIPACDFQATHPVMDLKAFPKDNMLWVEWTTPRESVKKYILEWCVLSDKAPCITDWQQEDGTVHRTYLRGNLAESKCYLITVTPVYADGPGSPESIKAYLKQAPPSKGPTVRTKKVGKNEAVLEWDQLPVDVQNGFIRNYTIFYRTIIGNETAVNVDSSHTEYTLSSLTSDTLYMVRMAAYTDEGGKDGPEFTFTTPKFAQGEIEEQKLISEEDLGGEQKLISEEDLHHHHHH
Assay: Luminex, myc-captured antigen
Method: (§3) Aliquots of microspheres with immobilized anti-myc monoclonal antibodies, prepared as described above, were added individually to 1 mL of the each of these protein supernatants and to 500 uL of purified GP130 protein. The microspheres were gently mixed, incubated for two hours at 25° C., washed twice with 1 mL of DBPS, centrifuged to remove the supernatant and finally resuspended in 1 mL of DPBS buffer. Forty eight μL of anti-myc IgG coupled microspheres from individual reactions with full length human GP130 and with each of the human GP130 domain proteins were withdrawn and mixed together in 3.6 mL of PBS+20 mg/mL BSA+0.05% sodium azide (blocking buffer).
(§4) From this mixed pool, 75 μL of microspheres were plated per well on a 96 well filter plate (Millipore, Cat. No: MSBVN1250) and mixed with 25 μL of individual anti-human GP130 monoclonal antibodies (0.5 or 5 μg/mL), incubated for two hours at 25° C. and then washed twice with 200 μL of DPBS with 0.05% Tween 20 (washing buffer). To detect and quantify the amounts of bound anti-GP130 antibody levels to individual microspheres, either 100 μL of 2.5 μg/mL R-Phycoerythrin conjugated goat F(ab′)2 anti-human kappa (Southern Biotech, Cat #2063-09) in blocking buffer, was added and incubated for 30 minutes at 25° C. After 30 minutes, the samples were washed twice with 200 μL of washing buffer and resuspended in 150 μL of wash buffer. The Median Fluorescence intensity (MFI) of the microspheres was measured in a Luminex Analyzer.

binding result	Binder
no binding (tested: 0.5 or 5 µg/mL)	B1
no binding (tested: 0.5 or 5 µg/mL)	B2
no binding (tested: 0.5 or 5 µg/mL)	B3
no binding (tested: 0.5 or 5 µg/mL)	B4
no binding (tested: 0.5 or 5 µg/mL)	B5
no binding (tested: 0.5 or 5 µg/mL)	B6
no binding (tested: 0.5 or 5 µg/mL)	B7

Target: T4, human GP130 delta D1 expressed with a C-terminal myc-myc hexahistidine tag (human, UniProt P40189 124-619)
T4 construct: CHO supernatant, captured on anti-myc microspheres; also called human GP130 delta D1-MMH
T4 sequence (P40189 other isoform, or with tags, fused parts or gaps mutant limits assumed): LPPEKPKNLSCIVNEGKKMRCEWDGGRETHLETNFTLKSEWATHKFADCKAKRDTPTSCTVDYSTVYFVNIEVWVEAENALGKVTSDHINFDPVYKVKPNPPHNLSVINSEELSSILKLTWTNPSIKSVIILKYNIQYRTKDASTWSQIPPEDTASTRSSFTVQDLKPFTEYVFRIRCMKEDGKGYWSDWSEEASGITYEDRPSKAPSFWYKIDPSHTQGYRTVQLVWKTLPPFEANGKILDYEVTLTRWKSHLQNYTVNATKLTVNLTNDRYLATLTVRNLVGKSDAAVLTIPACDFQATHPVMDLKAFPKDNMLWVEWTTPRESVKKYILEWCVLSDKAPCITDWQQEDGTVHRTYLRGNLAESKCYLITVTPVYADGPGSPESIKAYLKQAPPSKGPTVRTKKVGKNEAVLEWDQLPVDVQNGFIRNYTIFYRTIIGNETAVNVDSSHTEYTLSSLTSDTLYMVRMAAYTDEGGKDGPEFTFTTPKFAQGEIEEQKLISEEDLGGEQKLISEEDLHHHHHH
Assay: Luminex, myc-captured antigen
Method: as §3, §4

binding result	Binder
no binding (tested: 0.5 or 5 µg/mL)	B1
